Laboratory results as given in paper PMC11535027, “Structural basis of substrate recognition and allosteric activation of the proapoptotic mitochondrial HtrA2 protease” (Nature Communications, 2024).
Where a chain is given by its changes, count along the chain named. In names and notes the source's numbering stands.

T1: wild-type mature human HtrA2 (human)
T1 construct: made from the S306A construct that the methods name HtrA2^133–458; also called wild-type HtrA2; Omi; source: E. coli BL21 (λDE3), purified (Ni-HisTrap, gel filtration)
T1 chain: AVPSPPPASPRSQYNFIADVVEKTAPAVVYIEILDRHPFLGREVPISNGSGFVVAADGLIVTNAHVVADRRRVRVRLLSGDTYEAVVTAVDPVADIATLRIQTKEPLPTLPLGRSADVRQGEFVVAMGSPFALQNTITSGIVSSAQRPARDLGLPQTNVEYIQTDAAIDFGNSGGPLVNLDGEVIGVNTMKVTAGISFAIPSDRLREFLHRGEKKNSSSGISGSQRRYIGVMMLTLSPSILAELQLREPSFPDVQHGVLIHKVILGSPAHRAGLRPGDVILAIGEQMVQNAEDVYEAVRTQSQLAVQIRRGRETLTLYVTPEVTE

T2: wild-type mature HtrA2 (human, UniProt O43464 134-458)
T2 sequence (looked up): T1 chain

B1: full-length mature human HtrA2^133–458 S306A (enzyme, UniProt O43464 133-458, looked up)
chain: AAVPSPPPASPRSQYNFIADVVEKTAPAVVYIEILDRHPFLGREVPISNGSGFVVAADGLIVTNAHVVADRRRVRVRLLSGDTYEAVVTAVDPVADIATLRIQTKEPLPTLPLGRSADVRQGEFVVAMGSPFALQNTITSGIVSSAQRPARDLGLPQTNVEYIQTDAAIDFGNAGGPLVNLDGEVIGVNTMKVTAGISFAIPSDRLREFLHRGEKKNSSSGISGSQRRYIGVMMLTLSPSILAELQLREPSFPDVQHGVLIHKVILGSPAHRAGLRPGDVILAIGEQMVQNAEDVYEAVRTQSQLAVQIRRGRETLTLYVTPEVTE
notes: HtrA2 (Omi), human, mature form, residues 133-458 of the full-length protein of 458 residues, active site serine replaced (S306A); The purchased construct is named pET21b-HtrA2, and pET21b constructs are said to be carboxy-terminally His6-tagged; The purification text also describes removal of a SUMO-His6 tag; The introduction says that the mature protein lacks the 133 amino-terminal residues, …
B2: full-length mature human HtrA2 without the active site serine (S306A) (enzyme, UniProt O43464 134-458, looked up)
chain: T1 chain with S173A
notes: human HtrA2 (Omi), mature form; the methods name the construct HtrA2^133–458; the SEC-MALS constants are of the trimer to hexamer step; also called HtrA2^S306A; MALVI^proS-HtrA2^S306A; source: E. coli BL21 (λDE3), purified (Ni-HisTrap, gel filtration)
B3: DD-PDZOpt activating peptide (peptide)
peptide: DDGQYYFV
notes: source: synthetic peptide, bought: GenScript
B4: DD-PDZOpt activating peptide (peptide)
peptide: DDGQYYFV
notes: as for B3
B5: isolated HtrA2-PDZ domain (residues 349–458) (domain or fragment, human)
chain: NSSSGISGSQRRYIGVMMLTLSPSILAELQLREPSFPDVQHGVLIHKVILGSPAHRAGLRPGDVILAIGEQMVQNAEDVYEAVRTQSQLAVQIRRGRETLTLYVTPEVTE
notes: human HtrA2 (Omi), PDZ domain, residues 349-458; also called HtrA2^349-458; ALVIT-PDZ; source: E. coli BL21 (λDE3), purified (Ni-HisTrap, SENP1 cleavage, gel filtration); not shown: 6xHis-SUMO, N-terminal, cleaved
B6: isolated HtrA2-PDZ domain (residues 349–458) (domain or fragment, human, UniProt O43464 349-458, looked up)
chain: B5 chain
notes: HtrA2 (Omi), human mitochondrial serine protease, carboxy-terminal PDZ domain, residues 349-458 of the full-length protein of 458 residues; Constructs were either amino-terminally SUMO-His6-tagged (pET28b; tag removed with SENP1) or carboxy-terminally His6-tagged (pET21b); Isotope-labelled for NMR; also called ALVIT-PDZ; source: E. coli BL21 (λDE3), purified (Ni2+-HisTrap, gel filtration)

Key:
[1] = biological target: the molecule itself; test: SEC-MALS; HtrA2^S306A at increasing concentrations in HBS pH 7.4 without divalent ions; multimerization KD fitted assuming a fast monomer-dimer equilibrium
[2] = biological target: the molecule itself; test: SEC-MALS; HtrA2^S306A loaded at 4-7.5 mg/ml, Superdex Increase 200 10/300 GL, HBS pH 7.4, RT (~297 K), no added metal ions; trimer to hexamer (fitted with the monomer-dimer equation); KD given as a lower limit
[3] = biological target: the molecule itself; test: SEC-MALS; HtrA2^S306A loaded at 5-7.5 mg/ml, Superdex Increase 200 10/300 GL, HBS pH 7.4, RT (~297 K), with 25 mM CaCl2; trimer to hexamer (fitted with the monomer-dimer equation); KD given as a lower limit
[4] = biological target: T1, wild-type mature human HtrA2; test: fluorescence cleavage assay (cleavage rate of H2Opt against DD-PDZOpt concentration, one-site binding model); apparent; 510 nM wild-type HtrA2 (monomeric concentration), 20 µM H2Opt, DD-PDZOpt varied, 20 mM HEPES pH 7.4, no EDTA, 2 mM MgSO4, 313 K; settings: both partners purified
[5] = biological target: T1, wild-type mature human HtrA2; test: fluorescence cleavage assay (cleavage rate of H2Opt against DD-PDZOpt concentration, one-site binding model); apparent; 510 nM wild-type HtrA2 (monomeric concentration), 20 µM H2Opt, DD-PDZOpt varied, 20 mM HEPES pH 7.4, 1 mM EDTA, 313 K; no additive; settings: both partners purified
[6] = biological target: T1, wild-type mature human HtrA2; test: fluorescence cleavage assay (cleavage rate of H2Opt against DD-PDZOpt concentration, one-site binding model); apparent; 510 nM wild-type HtrA2 (monomeric concentration), 20 µM H2Opt, DD-PDZOpt varied, 20 mM HEPES pH 7.4, no EDTA, 2 mM CaCl2, 313 K; settings: both partners purified
[7] = biological target: T2, wild-type mature HtrA2; test: cell-based or functional assay
[8] = biological target: B6; test: NMR titration; DD-PDZOpt titrated to HtrA2-PDZ, 2D [15N,1H] and 2D [13C,1H] spectra (ALVIT methyl-labelled PDZ); line-shape analysis with TITAN, two-state ligand binding model; 298 K; settings: both partners purified
[9] = biological target: the molecule itself; test: SEC-MALS; HtrA2-PDZ loaded at 100-800 µM, Superdex Increase 200 10/300 GL, HBS (20 mM HEPES, 150 mM NaCl) pH 7.4, RT (~297 K), with CaCl2; monomer to dimer; KD given as a lower limit
[10] = biological target: the molecule itself; test: SEC-MALS; HtrA2-PDZ loaded at 100-800 µM, Superdex Increase 200 10/300 GL, HBS (20 mM HEPES, 150 mM NaCl) pH 7.4, RT (~297 K), with CuCl2; monomer to dimer; KD given as a lower limit
[11] = biological target: the molecule itself; test: SEC-MALS; HtrA2-PDZ loaded at 100-800 µM, Superdex Increase 200 10/300 GL, HBS (20 mM HEPES, 150 mM NaCl) pH 7.4, RT (~297 K), with ZnSO4; monomer to dimer; KD given as a lower limit
[12] = biological target: the molecule itself; test: SEC-MALS; HtrA2-PDZ loaded at 100-800 µM, Superdex Increase 200 10/300 GL, HBS (20 mM HEPES, 150 mM NaCl) pH 7.4, RT (~297 K), with Mg2+ (+MgCl2 in the figure, MgSO4 in Supplementary Table 1); monomer to dimer; KD given as a lower limit
[13] = biological target: the molecule itself; test: SEC-MALS; HtrA2-PDZ at a range of concentrations, Superdex Increase 200 10/300 GL, PBS pH 7.4, RT (~297 K); KD fitted assuming a fast monomer-dimer equilibrium; dimer to monomers; lower limit because the concentration range was limited by solubility
[14] = biological target: the molecule itself; test: SEC-MALS; HtrA2-PDZ in the presence of the activating peptide DD-PDZOpt; dimer to monomers
[15] = biological target: the molecule itself; test: SEC-MALS; HtrA2-PDZ in HBS (20 mM HEPES, 150 mM NaCl) pH 7.4 supplemented with Zn2+, compared with the non-supplemented buffer; dimer to monomers

Binder: B1
- Kd [1]: 500 to 1000 µM

Binder: B2
- Kd [2]: ≥ 960 µM
- Kd [3]: ≥ 490 µM

Binder: B3
- Kd [4]: 11.9 µM
- Kd [5]: 27.9 µM
- Kd [6]: 1.53 µM

Binder: B4
- apparent K_(D,app) of DD-PDZOpt from the H2Opt cleavage rate, with 2 mM Mg2+, as percent of that in standard assay buffer [7]: ~50%
- Kd [8]: 3.18 ± 0.9 µM

Binder: B5
- Kd [9]: ≥ 9200 µM
- Kd [10]: ≥ 4160 µM
- Kd [11]: ≥ 250 µM
- Kd [12]: ≥ 3520 µM

Binder: B6
- Kd [13]: ≥ 13000 µM
- Kd [14]: 10300 ± 2500 µM
- fold increase of the propensity to dimerize with Zn2+ against the non-supplemented buffer [15]: ~50 fold
